Values joined by “and” are separate entries in the source; they are usually repeats but may differ in a detail not shown here. Equal values may be shown once.
Assays:
[1] = target: D-psicose 3-epimerase from Ruminococcus sp. 5_1_39BFAA (RDPE) (Ruminococcus sp. 5_1_39BFAA); assay: native gel or EMSA; blue native PAGE (BN-PAGE) of the soluble cytoplasmic fraction and the culture supernatant of B. subtilis after 24 h of cultivation; non-reducing sample buffer, Coomassie blue; mass estimated within ±15%
[2] = target: D-psicose 3-epimerase from Ruminococcus sp. 5_1_39BFAA (RDPE) (Ruminococcus sp. 5_1_39BFAA); assay: native gel or EMSA; soluble protein fractions combined with SDS at 0, 0.5%, 1% and 2% and run on a 10% acrylamide native gel
[3] = target: RDPE derivative with a C-terminal 6-His tag (RDPE-H) (Ruminococcus sp. 5_1_39BFAA); assay: cross-linking; in vivo cross-linking of B. subtilis cells with 0.5 mM DSS in PBS pH 8.3, 20 min at 37 °C; cells recovered 1 h in fresh medium; 10% SDS-PAGE with β-mercaptoethanol and anti-His immunoblot of cell and supernatant fractions
[4] = target: RDPE truncated by a single amino acid from the N-terminus (ΔN1) (Ruminococcus sp. 5_1_39BFAA); assay: native gel or EMSA; blue native PAGE (BN-PAGE) of the soluble cytoplasmic fraction and the culture supernatant of B. subtilis after 24 h of cultivation; non-reducing sample buffer, Coomassie blue; mass estimated within ±15%
[5] = target: RDPE variant 100A (Leu100 to alanine) (Ruminococcus sp. 5_1_39BFAA); assay: as above
[6] = target: RDPE variant D102A (Ruminococcus sp. 5_1_39BFAA); assay: as above
[7] = target: RDPE variant G107A (Ruminococcus sp. 5_1_39BFAA); assay: as above
[8] = target: RDPE variant G181A (Ruminococcus sp. 5_1_39BFAA); assay: as above
[9] = target: RDPE variant I103A (Ruminococcus sp. 5_1_39BFAA); assay: as above
[10] = target: RDPE variant L184A (Ruminococcus sp. 5_1_39BFAA); assay: as above
[11] = target: RDPE variant V106A (Ruminococcus sp. 5_1_39BFAA); assay: as above
[12] = target: RDPE variant V175A (Ruminococcus sp. 5_1_39BFAA); assay: as above
[13] = target: RDPE variant V180A (Ruminococcus sp. 5_1_39BFAA); assay: as above
[14] = target: RDPE variant V182A (Ruminococcus sp. 5_1_39BFAA); assay: as above
[15] = target: full-length RDPE fused to mCherry (RDPE-mCh) (Ruminococcus sp. 5_1_39BFAA); assay: as above

Q: How did the stoichiometry N [1] turn out when “D-psicose 3-epimerase from Ruminococcus sp. 5_1_39BFAA (RDPE) (enzyme)” was run?
A: 4

Q: What about the stoichiometry N [2] of the same substance?
A: 3 and 2

Q: With “RDPE derivative with a C-terminal 6-His tag (RDPE-H) (enzyme)” as the substance, how does the stoichiometry N [3] read?
A: 4

Q: How did the stoichiometry N [4] turn out when “RDPE truncated by a single amino acid from the N-terminus (ΔN1) (enzyme)” was run?
A: 4

Q: With “RDPE variant 100A (Leu100 to alanine) (enzyme)” as the substance, how does the stoichiometry N [5] read?
A: 4

Q: RDPE variant D102A (enzyme) was tested. Which stoichiometry N [6] did it give?
A: 4

Q: For RDPE variant G107A (enzyme), which stoichiometry N [7] is on record?
A: 4

Q: How did the stoichiometry N [8] turn out when RDPE variant G181A (enzyme) was run?
A: 4

Q: How did the stoichiometry N [9] turn out when RDPE variant I103A (enzyme) was run?
A: 4

Q: With RDPE variant L184A (enzyme) as the substance, how does the stoichiometry N [10] read?
A: 4

Q: Which stoichiometry N [11] does the source give for RDPE variant V106A (enzyme) here?
A: 4

Q: With RDPE variant V175A (enzyme) as the substance, how does the stoichiometry N [12] read?
A: 4

Q: RDPE variant V180A (enzyme) was tested. Which stoichiometry N [13] did it give?
A: 4

Q: With RDPE variant V182A (enzyme) as the substance, how does the stoichiometry N [14] read?
A: 4

Q: How did the stoichiometry N [15] turn out when “full-length RDPE fused to mCherry (RDPE-mCh) (enzyme)” was run?
A: 4
